The test concerns the target T1, X-linked inhibitor of apoptosis protein (XIAP) BIR3 domain (human).
T1 construct: Neither the catalogue number, the construct limits nor the tags of the Sino Biological protein are stated; also called XIAP BIR3 protein; source: bought: Sino Biological, Beijing, China
Description: fluorescence polarisation; direct binding: two-fold serial dilutions of XIAP BIR3 domain (2.5 µM to 0.0763 nM) incubated 30 min with probe 4 (2 nM); r.t.; phosphate buffer pH 7.5 with γ-globulin 100 µg/mL and NaN3 0.02%; one site - total binding model. Particulars: both partners purified. (In general: In fluorescence polarisation assays a small probe gives low polarisation when free and higher when bound to something large.)

Square brackets hold non-standard residues; d marks the D form. 5(6)‑Fam = 5(6)-carboxyfluorescein; Dpm = not defined here

For orientation: Kd means the free concentration of one partner at which half of the binding sites on the other are occupied at equilibrium, for simple one-to-one binding. Read a low Kd as tighter binding.

B1: fluorescent probe H2N-Ala-Val-Pro-Dpm-Ala-Lys(5(6)-Fam)-Lys-NH2 (4) (peptide)
chain: H-AVP[Dpm]AK(5(6)‑Fam)K-NH2
modifications: reading uncertain; also: printed as H2N-Ala-Val-Pro-Dpm-Ala-Lys(5(6)-Fam)-Lys-NH2
Take B1: the Kd came to 49.9 ± 5.37 nM.

For the origin of these results see publication PMC7497679, “Structure-based design, synthesis, and evaluation of the biological activity of novel phosphoroorganic small molecule IAP antagonists” (Investigational New Drugs, 2020).
